# From patent US20250084406A1 (University of California, published 2025)
# B1: DHD13B (fusion partner in the split TF assay not stated for this statement) (designed binder)
# chain: GTEKRLLEEAERAHREQKEIIKKAQELHRRLEEIVRQSGSSEEAKKEAKKILEEIRELSKRSLELLREILYLSQEQKGSEGSGSEGS
# notes: not shown: fused to VP16 or ZF43_8
# B2: 37A-ZF43_8 (designed binder)
# chain: DSDEHLKKLKTFLENLRRHLDRLDKHIKQLRDILSENPEDERVKDVIDLSERSVRIVKTVIKIFEDSVRKKEGSEGSGSEGS
# notes: Expressed in S. cerevisiae; also called DHD37A fused to ZF43_8; 37A DHD-DBD
# B3: 154A dominant negative (designed binder)
# chain: TAEELLEVHKKSDRVTKEHLRVSEEILKVVEVLTRGEVSSEVLKRVLRKLEELTDKLRRVTEEQRRVVEKLN
# notes: also called DN
# B4: 155A-ZF43_8 (designed binder)
# chain: PEDDVVRIIKEDLESNREVLREQKEIHRILELVTRGEVSEEAIDRVLKRQEDLLKKQKESTDKARKVVEERR
# notes: Expressed in S. cerevisiae; also called DHD155A fused to ZF43_8
# Experiments:
# [1] = target: T1, DHD37B (fusion partner in the split TF assay not stated for this statement); test: split TF YFP reporter assay in S. cerevisiae (all-by-all matrix, FIG. 1D); orientation of the fusions not told
# T1 construct: not shown: fused to VP16 or ZF43_8
# T1 chain: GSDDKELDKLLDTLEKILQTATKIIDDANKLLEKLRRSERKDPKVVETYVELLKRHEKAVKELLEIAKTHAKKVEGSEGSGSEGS
# 37B-VP16 = target: T2, 37B-VP16; test: split TF YFP reporter assay in S. cerevisiae (all-by-all matrix, FIG. 1D)
# T2 construct: Expressed in S. cerevisiae; also called DHD37B fused to VP16; 37B DHD-AD
# T2 chain: T1 chain
# 154B-VP16 = target: T3, 154B-VP16; test: competition in the split TF YFP reporter assay in yeast, layout of FIG. 2A (FIG. 2D)
# T3 construct: Expressed in S. cerevisiae; also called DHD154B fused to VP16
# T3 chain: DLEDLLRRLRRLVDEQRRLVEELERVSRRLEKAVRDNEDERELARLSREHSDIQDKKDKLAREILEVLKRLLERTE
# 155B-VP16 = target: T4, 155B-VP16; test: split TF YFP reporter assay in S. cerevisiae (all-by-all matrix, FIG. 1D)
# T4 construct: Expressed in S. cerevisiae; also called DHD155B fused to VP16
# T4 chain: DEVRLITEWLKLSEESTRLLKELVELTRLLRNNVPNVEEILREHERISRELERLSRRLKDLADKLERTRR
binder,measurement,setting,value
B1,binding result,[1],binds
B2,binding result,37B-VP16,binds
B3,binding result,154B-VP16,binds
B4,binding result,155B-VP16,binds
